The source of these data is patent publication US20060057696A1, “Sugar chain synthases” (priority 2002, published 2006).

Experiment [1] deals with T1, PA-mST6Gal II (mouse ST6Gal II) (Mus musculus, UniProt Q76K27, R48S).
T1 construct: amino acids 31-524 in the case of mouse ST6Gal II; signal peptide of mouse immunoglobulin IgM (N); made in house; host or cells: COS-7 cells, transient expression of pcDSA-mST6Gal II; protein recovered from medium on IgG-Sepharose
T1 sequence (Q76K27 31-524 R48S): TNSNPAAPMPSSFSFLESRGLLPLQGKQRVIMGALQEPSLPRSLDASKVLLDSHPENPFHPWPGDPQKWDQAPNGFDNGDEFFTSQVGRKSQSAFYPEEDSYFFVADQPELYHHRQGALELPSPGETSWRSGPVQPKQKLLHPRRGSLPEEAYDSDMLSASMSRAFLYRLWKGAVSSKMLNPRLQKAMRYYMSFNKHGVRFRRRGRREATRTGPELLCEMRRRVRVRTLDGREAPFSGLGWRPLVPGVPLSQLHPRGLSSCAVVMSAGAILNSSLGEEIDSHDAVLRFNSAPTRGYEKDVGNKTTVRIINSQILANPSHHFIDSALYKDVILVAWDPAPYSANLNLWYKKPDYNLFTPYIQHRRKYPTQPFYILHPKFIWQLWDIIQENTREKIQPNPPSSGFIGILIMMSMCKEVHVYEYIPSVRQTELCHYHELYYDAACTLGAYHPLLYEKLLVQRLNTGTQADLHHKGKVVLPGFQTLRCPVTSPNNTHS
Put plainly: Sialyltransferase activity of PA-mST6Gal II toward acceptor substrates. It is filed as biochemical. The conditions noted are these: PA-mST6Gal II; incorporation with Galβ1,4GlcNAc taken as 100; 0.5 mg/ml glycolipids, 1 mg/ml glycoproteins and oligosaccharides. The procedure:
Using each expression vector and lipofectamine (Invitrogen), transient expression was carried out in COS-7 cells (Kojima, N. et al. (1995) FEBS Lett. 360, 1-4). The proteins of the present invention secreted from the cells into which each expression vector had been introduced were named as PA-hST6Gal II (human) and PA-mST6Gal II (mouse). PA-hST6Gal II and PA-mST6Gal II were adsorbed to IgG-Sepharose (Amersham Pharmacia Biotech), and were then recovered from medium. Sialyltransferase activity was measured as follows according to the method of Lee et al. (Lee, Y.-C. et al. (1999) J Biol. Chem. 274, 11958-11967). A reaction mixture (10 μl) containing 50 mM MES buffer (pH 6.0), 1 mM MgCl2, 1 mM CaCl2, 0.5% Triton CF-54, 100 μM CMP-[^14C]-NeuAc, a substrate sugar chain (which was added at 0.5 mg/ml in the case of glycolipids, and at 1 mg/ml in the case of glycoproteins or oligosaccharides), and a PA-hST6Gal II or PA-mST6Gal II suspension, was incubated at 37° C. for 3 to 20 hours. Thereafter, in the case of glycolipids, the reaction product was purified with a C-18 column (Sep-Pak Vac 100 mg; Waters) and the purified product was used as a sample. In the case of oligosaccharides or glycoproteins, the reaction product was directly used as a sample. Thus, the obtained sample was subjected to analysis. In the case of oligosaccharides or glycolipids, the sample was spotted on a silica gel 60 HPTLC plate (Merck), and it was then developed with a developing solvent consisting of 1-propanol:ammonia water:water=6:1:2.5 (for oligosaccharides), or a developing solvent consisting of chloroform:methanol: 0.02% CaCl2=55:45:10 (for glycolipids). In the case of glycoproteins, analysis was carried out by SDS-polyacrylamide gel electrophoresis. The obtained radioactivities were visualized with a BAS2000 radio image analyzer (Fuji Film) and then quantified.

For experiment [2], the target named is T2, PA-hST8Sia VI (human ST8Sia VI) (Homo sapiens, UniProt P61647, L267F).
T2 construct: amino acids 68-398 in the case of human ST8Sia VI; signal peptide of mouse immunoglobulin IgM (N); made in house; host or cells: COS-7 cells, transient expression of pcDSA-hST8Sia VI; protein recovered from medium on IgG-Sepharose
T2 sequence (P61647 68-398 L267F): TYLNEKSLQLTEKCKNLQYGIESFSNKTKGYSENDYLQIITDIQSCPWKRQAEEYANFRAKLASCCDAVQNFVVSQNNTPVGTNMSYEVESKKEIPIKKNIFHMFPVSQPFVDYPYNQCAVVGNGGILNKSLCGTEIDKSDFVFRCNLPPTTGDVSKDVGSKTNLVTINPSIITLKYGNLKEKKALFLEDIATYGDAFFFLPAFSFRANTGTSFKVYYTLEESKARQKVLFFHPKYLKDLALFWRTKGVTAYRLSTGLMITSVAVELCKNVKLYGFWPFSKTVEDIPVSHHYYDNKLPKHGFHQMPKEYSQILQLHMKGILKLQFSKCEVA
Put plainly: Sialyltransferase activity of PA-hST8Sia VI toward acceptor substrates. It is filed as biochemical. The conditions noted are these: incorporation with Fetuin taken as 100, substrate 0.5 mg/ml glycolipids, 1 mg/ml glycoproteins, monosaccharides and oligosaccharides. The procedure:
Using each expression vector and lipofectamine (Invitrogen), transient expression was carried out in COS-7 cells (Kojima, N. et al. (1995) FEBS Lett. 360, 1-4). The proteins of the present invention secreted from the cells into which each expression vector had been introduced were named as PA-mST8Sia VI (mouse) and PA-hST8Sia VI (human). PA-mST8Sia VI and PA-hST8Sia VI were adsorbed to IgG-Sepharose (Amersham Pharmacia Biotech), and were then recovered from medium. Sialyltransferase activity was measured as follows according to the method of Lee et al. (Lee, Y.-C. et al. (1999) J. Biol. Chem. 274, 11958-11967). A reaction solution (10 μl) containing 50 mM MES buffer (pH 6.0), 1 mM MgCl2, 1 mM CaCl2, 0.5% Triton CF-54, 100 μM CMP-[^14C]-NeuAc, a glycoconjugate (which was added at 0.5 mg/ml in the case of glycolipids, and at 1 mg/ml in the case of glycoproteins or oligosaccharides), and a PA-mST8Sia VI or PA-hST8Sia VI suspension, was incubated at 37° C. for 3 to 20 hours. Thereafter, in the case of glycolipids, the reaction product was purified with a C-18 column (Sep-Pak Vac 100 mg; Waters) and the purified product was used as a sample, and in the case of oligosaccharides or glycoproteins, the reaction product was directly used as a sample. Thus, the obtained samples were subjected to analysis. In the case of oligosaccharides or glycolipids, the sample was spotted on a silica gel 60 HPTLC plate (Merck), and was then developed with a developing solvent consisting of ethanol:pyridine:n-butanol:water:acetic acid=100:10:10:30:3 (for oligosaccharides), a developing solvent consisting of 1-propanol:ammonia water:water=6:1:2.5 (for oligosaccharides), or a developing solvent consisting of chloroform:methanol: 0.02% CaCl2=55:45:10 (for glycolipids). In the case of glycoproteins, analysis was carried out by SDS-polyacrylamide gel electrophoresis. The obtained radioactivities were visualized with a BAS2000 radio image analyzer (Fuji Film) and then quantified.

Turning to “Asialo- α1-Acid glycoprotein: desialylated α1-acid glycoprotein prepared at 80° C. for 1 hour in 0.02 N HCl”, in experiment [1], the “Relative rate (%) Mouse ST6Gal II” value is reported as 12.3%. The “Relative rate (%) Human ST8Sia VI” value in experiment [2] was 0%.
Turning to “Asialofetuin: asialo glycoprotein acceptor substrate purchased from Sigma”, in experiment [1], the “Relative rate (%) Mouse ST6Gal II” value amounted to 21.0%. Also, the “Relative rate (%) Human ST8Sia VI” value in experiment [2] was 0%.
As to “Fetuin: glycoprotein acceptor substrate containing both O-glycans and N-glycans, purchased from Sigma”, the “Relative rate (%) Mouse ST6Gal II” value in experiment [1] was found to be 0%. Further, the “Relative rate (%) Human ST8Sia VI” value in experiment [2] is 100%.
For “Galβ1,3GalNAcβ1,4(NeuAcα2,3)Galβ1,4Glcβ1-Cer [GM1a]”, in experiment [1], the “Relative rate (%) Mouse ST6Gal II” value is 0%.
Take Galβ1,4Glcβ1-Cer [Lactosylceramide]: the “Relative rate (%) Mouse ST6Gal II” value in experiment [1] was 0%.
Turning to NeuAcα2,3Galβ1,4Glcβ1-Cer [GM3], the “Relative rate (%) Mouse ST6Gal II” value in experiment [1] was 0%. The “Relative rate (%) Human ST8Sia VI” value in experiment [2] stood at 1.6%.
On the same counts, the results for “α1-Acid glycoprotein: glycoprotein acceptor substrate purchased from Sigma” are 0.75% and 0%.

B1: Ovomucoid: glycoprotein acceptor substrate which contains only N-glycans (protein, UniProt P01005 25-210, looked up)
Ovomucoid: AEVDCSRFPNATDKEGKDVLVCNKDLRPICGTDGVTYTNDCLLCAYSIEFGTNISKEHDGECKETVPMNCSSYANTTSEDGKVMVLCNRAFNPVCGTDGVTYDNECLLCAHKVEQGASVDKRHDGGCRKELAAVSVDCSEYPKPDCTAEDRPLCGSDNKTYGNKCNFCNAVVESNGTLTLSHFGKC
As for B1, the “Relative rate (%) Mouse ST6Gal II” value in experiment [1] stood at 0%. Besides, the “Relative rate (%) Human ST8Sia VI” value in experiment [2] is reported as 12.3%.

B2: Asialoovomucoid: desialylated ovomucoid prepared at 80° C. for 1 hour in 0.02 N HCl (protein, UniProt P01005 25-210, looked up)
Ovomucoid: B1 Ovomucoid
modifications: desialylated
notes: desialylated ovomucoid prepared at 80° C. for 1 hour in 0.02 N HCl
For B2, the “Relative rate (%) Mouse ST6Gal II” value in experiment [1] is listed as 0%. In addition, in experiment [2], the “Relative rate (%) Human ST8Sia VI” value is 0%.
